Laboratory results from the Human Domainome abundance scans (Beltran et al. 2025).

B1: Advillin, residues 785 to 819; numbered along this chain, O75366 (parent)
chain: LSEQDFVSVFGITRGQFAALPGWKQLQMKKEKGLF

Variants of: B1
Assay: abundance fitness (aPCA) (normalised: wild type 0, dead -1); higher = more abundant; growth selection in yeast, the domain comes from the species named
Conditions: Homo sapiens

Abundance fitness, by site and new letter:
F35: A -0.334; C 0.179; L 0.197; I 0.312; R 0.126; W -0.13; N -0.478; P 0.054; V 0.141; Q -0.071; E 0.129; K -1; S 0.355
G33: S -0.108; W -0.541; R -0.235; T -0.308; L -0.305; P 0.191; Q 0.186; V -0.525; N -0.401
L34: D 0.284; P 0.033; F 0.321; E 0.266; C 0.355; T 0.143; V -0.122; K -0.003; G 0.147; S 0.177; Q 0.098; H 0.042; N 0.027; M 0.029; R -0.112; A 0.128; W 0.019
